Data on one molecule can be found in paper PMC3750193, “Disassembly of All SNARE Complexes by N-Ethylmaleimide-sensitive Factor (NSF) Is Initiated by a Conserved 1:1 Interaction between α-Soluble NSF Attachment Protein (SNAP) and SNARE Complex*^([image sbox.jpg])” (The Journal of Biological Chemistry, 2013).

What all share (assay): other fluorescence titration; change in Oregon Green 488 fluorescence intensity of the labeled SNARE complex as a function of α-SNAP concentration; fit y = Fmax·x/(KD + x); three independent experiments
Assay [1] has as its target T1, VAMP7-syntaxin4-SNAP23 ternary SNARE complex, labeled with Oregon Green 488 (rat, UniProt Q9JHW5 1-190; Q08850 1-274; O70377 1-210, C21S | C56V | C141S | E257C | I261C, Oregon Green 488 (maleimide) on cysteines; the labeled endogenous and mutant cysteines are shown in Figure 1A).
T1 construct: VAMP7, rat, residues 1-190; syntaxin4A, rat, residues 1-274; tag-free; SNAP23, rat; Removal of the His6 tag is told only for α-SNAP; also called VAMP7(1–190)-C21S/C56V-syntaxin4A(1–274)-C141S/E257C/I261C-SNAP23; source: E. coli BL21(DE3), coexpressed, purified (Ni-NTA, Superdex 200); copies: + +
T1 sequence (looked up) 1: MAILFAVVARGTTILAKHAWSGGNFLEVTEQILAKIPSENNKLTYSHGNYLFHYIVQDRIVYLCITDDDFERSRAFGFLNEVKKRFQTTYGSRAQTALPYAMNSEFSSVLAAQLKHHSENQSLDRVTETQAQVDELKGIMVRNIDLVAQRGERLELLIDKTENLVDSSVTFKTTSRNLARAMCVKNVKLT
T1 sequence (looked up) 2: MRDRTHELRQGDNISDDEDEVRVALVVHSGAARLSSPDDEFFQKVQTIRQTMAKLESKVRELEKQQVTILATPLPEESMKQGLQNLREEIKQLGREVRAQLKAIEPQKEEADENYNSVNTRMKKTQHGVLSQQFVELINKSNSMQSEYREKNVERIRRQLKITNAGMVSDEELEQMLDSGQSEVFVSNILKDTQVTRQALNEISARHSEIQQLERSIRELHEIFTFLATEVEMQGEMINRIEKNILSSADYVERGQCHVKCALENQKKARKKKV
T1 sequence (looked up) 3: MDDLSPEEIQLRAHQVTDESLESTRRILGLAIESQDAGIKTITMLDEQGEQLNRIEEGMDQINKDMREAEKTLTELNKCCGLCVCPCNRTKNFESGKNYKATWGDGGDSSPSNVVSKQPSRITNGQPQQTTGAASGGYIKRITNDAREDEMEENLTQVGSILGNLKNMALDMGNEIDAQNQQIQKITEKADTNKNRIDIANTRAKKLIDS
The conditions noted are these: both partners purified.

Assay [2] addresses T2, VAMP8-syntaxin4-SNAP23 ternary SNARE complex, labeled with Oregon Green 488 (rat, UniProt Q9WUF4 1-76; Q08850 1-274; O70377 1-210, I76C | C141S | E257C | I261C, Oregon Green 488 (maleimide) on cysteines; the labeled endogenous and mutant cysteines are shown in Figure 1A | Oregon Green 488 (maleimide) on cysteines; the labeled endogenous and mutant cysteines …).
T2 construct: VAMP8 (endobrevin), rat, residues 1-76; syntaxin4A, rat, residues 1-274; tag-free; SNAP23, rat; Removal of the His6 tag is told only for α-SNAP; also called VAMP8(1–76)-I76C-syntaxin4A(1–274)-C141S/E257C/I261C-SNAP23; source: E. coli BL21(DE3), coexpressed, purified (Ni-NTA, Superdex 200); copies: + +
T2 sequence (looked up) 1: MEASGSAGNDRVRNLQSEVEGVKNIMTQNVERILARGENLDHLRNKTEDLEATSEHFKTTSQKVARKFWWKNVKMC
T2 sequence (looked up) 2: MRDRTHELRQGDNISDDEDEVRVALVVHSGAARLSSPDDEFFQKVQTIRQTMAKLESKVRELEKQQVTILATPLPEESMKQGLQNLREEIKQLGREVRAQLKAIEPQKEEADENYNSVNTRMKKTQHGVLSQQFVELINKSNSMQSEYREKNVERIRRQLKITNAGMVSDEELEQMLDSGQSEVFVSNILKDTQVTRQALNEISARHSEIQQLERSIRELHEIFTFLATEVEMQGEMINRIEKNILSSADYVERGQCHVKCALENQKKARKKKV
T2 sequence (looked up) 3: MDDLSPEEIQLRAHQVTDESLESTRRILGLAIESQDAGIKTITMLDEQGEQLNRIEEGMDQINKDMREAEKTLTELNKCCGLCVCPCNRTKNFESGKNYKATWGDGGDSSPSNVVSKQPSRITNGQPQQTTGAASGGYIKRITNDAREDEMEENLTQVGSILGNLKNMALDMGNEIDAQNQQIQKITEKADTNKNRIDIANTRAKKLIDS
The conditions noted are these: both partners purified.

For assay [3], the target named is all four ternary SNARE complexes.

B1: α-soluble NSF attachment protein (α-SNAP) (natural protein, rat, UniProt P54921 1-295, looked up)
chain: MDTSGKQAEAMALLAEAERKVKNSQSFFSGLFGGSSKIEEACEIYARAANMFKMAKNWSAAGNAFCQAAQLHLQLQSKHDAATCFVDAGNAFKKADPQEAINCLMRAIEIYTDMGRFTIAAKHHISIAEIYETELVDVEKAIAHYEQSADYYKGEESNSSANKCLLKVAGYAAQLEQYQKAIDIYEQVGTSAMDSPLLKYSAKDYFFKAALCHFCIDMLNAKLAVQKYEELFPAFSDSRECKLMKKLLEAHEEQNVDSYTESVKEYDSISRLDQWLTTMLLRIKKTIQGDEEDLR
notes: α-SNAP, rat; His6 tag removed with tobacco etch virus protease; source: E. coli BL21(DE3), purified (Ni-NTA, Superdex 200)
As for B1, the binding result in assay [1] and in assay [2] was “binds” each time. The Kd in assay [3] is 200 to 600 nM.
